Results from PMC7083938 (2020).

Columns and labels:
Robo1 FN1 mouse = target: T1, Robo1 FN1 mouse (Mus musculus (Mouse), UniProt O89026); experiment: SPR equilibrium
T1 chain: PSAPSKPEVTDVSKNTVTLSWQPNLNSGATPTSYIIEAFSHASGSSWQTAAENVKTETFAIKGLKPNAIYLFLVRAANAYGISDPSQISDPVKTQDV

Robo3 FN1 mouse = target: T2, Robo3 FN1 mouse (Mus musculus (Mouse), UniProt Q9Z2I4); experiment: SPR equilibrium
T2 chain: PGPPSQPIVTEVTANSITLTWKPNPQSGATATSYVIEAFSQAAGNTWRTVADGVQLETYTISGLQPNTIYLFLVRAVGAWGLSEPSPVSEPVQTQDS

Kd (Robo1 FN1 mouse): 13.8 µM | Kd (Robo3 FN1 mouse): 0.71 µM
B1: NELL2 mouse (protein)
chain: DIDECAEGRHYCRENTMCVNTPGSFMCICKTGYIRIDDYSCTEHDECLTNQHNCDENALCFNTVGGHNCVCKPGYTGNGTTCK
